# Experimental data published in patent US20220213169A1.
# Substitutions are numbered along the chain they refer to. Several values for one entry are separate records, joined by “and”; a condition that tells them apart may be missing. Equal values may be shown once.
# B1: ADAM8 prodomain peptide SEQ ID NO: 4 (peptide, not shown: small tags and cut ends)
# chain: MIAPSRPWALMEQYEVVLPRRLPGPRVRAALPSHLGLHPERVSYVLGATGHNFTLHLRKNRDLLGSGYTETYTAANGSEVTEQPRGQDHSFYQGHVEGYPDSAASLSTSAGLRGFFQVGSDLHLIEPLDEGGEGGRHAVYQAEHLLQTAGTSGVSDDSLGSLLGPRTAAVFRPRPGDSLPS
# B2: ADAM8 prodomain peptide SEQ ID NO: 14 (peptide, not shown: small tags and cut ends)
# chain: B1 chain with A29R, S90C, S109C, S152C
# B3: ADAM8 prodomain peptide SEQ ID NO: 16 (peptide, not shown: small tags and cut ends)
# chain: B1 chain with A29R, S90C, F91L, S109C, S152C
# B4: SEQ ID NO: 14 (pegylated on 3 cysteines) (peptide, not shown: small tags and cut ends)
# chain: B1 chain with A29R, S90C, S109C, S152C
# modifications: 2 kDa maleimide PEG on all three cysteines (cysteines 105, 124 and 167 of SEQ ID NO: 1 numbering; positions 90, 109 and 152 of SEQ ID NO: 14)
# B5: SEQ ID NO: 15 (pegylated at C-terminus) (peptide, part only; not given: added cysteine residues and His tag, not shown: small tags and cut ends)
# chain, part: B1 chain with A29G
# modifications: 5 kDa maleimide PEG on an added cysteine near the C-terminus
# B6: wild type human ADAM8 prodomain peptide SEQ ID NO: 2 (peptide, not shown: small tags and cut ends)
# chain: B1 chain with R20W, A29R, S90C, S109C, S152C
# B7: ADAM8 prodomain peptide SEQ ID NO: 15 (peptide, not shown: small tags and cut ends)
# chain: B1 chain with A29G
# B8: ADAM8 prodomain peptide SEQ ID NO: 17 (peptide, not shown: small tags and cut ends)
# chain: B1 chain with R20W, R26K, A29K
# B9: SEQ ID NO: 17 (Pegylated on N-terminus) (peptide, part only; not given: added cysteine residues and His tag, not shown: small tags and cut ends)
# chain, part: B1 chain with R20W, R26K, A29K
# modifications: 5 kDa maleimide PEG on an introduced cysteine near the N-terminus
# Biological target: T1, human ADAM8 (human) (UniProt P78325)
# T1 sequence: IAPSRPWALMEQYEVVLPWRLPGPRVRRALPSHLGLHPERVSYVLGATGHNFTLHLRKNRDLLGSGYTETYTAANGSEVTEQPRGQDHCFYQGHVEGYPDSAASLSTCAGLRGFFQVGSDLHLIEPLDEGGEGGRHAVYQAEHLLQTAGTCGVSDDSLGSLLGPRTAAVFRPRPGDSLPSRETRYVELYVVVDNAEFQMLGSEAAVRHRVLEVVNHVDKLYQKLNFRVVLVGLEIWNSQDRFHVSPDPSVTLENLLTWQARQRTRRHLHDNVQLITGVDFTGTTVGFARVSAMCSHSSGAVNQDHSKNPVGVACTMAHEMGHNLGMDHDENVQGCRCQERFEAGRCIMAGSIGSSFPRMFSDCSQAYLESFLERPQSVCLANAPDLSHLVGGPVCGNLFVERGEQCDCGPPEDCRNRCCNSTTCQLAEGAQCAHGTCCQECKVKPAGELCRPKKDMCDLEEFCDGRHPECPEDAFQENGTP
# Test: cell-based or functional assay
Binder,percent inhibition of ADAM8 (cleavage of fluorescence energy transfer substrate PEPDAB064 or PEPDAB013) (% inhibition at 5 uM),IC50 for inhibition of ADAM8 (cleavage of fluorescence energy transfer substrate PEPDAB064 or PEPDAB013),percent inhibition of ADAM8 (cleavage of fluorescence energy transfer substrate PEPDAB064 or PEPDAB013) (% inhibition at 4.8 uM)
B1,40,–,–
B2,–,1400 nM and 2300 nM,–
B3,–,400 nM,–
B4,–,2700 nM and 2300 nM,–
B5,–,1800 nM and 3000 nM,–
B6,–,2800 nM and 2300 nM,–
B7,–,–,45
B8,–,–,51
B9,–,24000 nM,–
